Here are results for one molecule from US20230312753A1 (IMMUNORIZON, published 2023).

Test [1] addresses T1, 5T4 on cells (NCI-H226 endogenous; CHO over-expressing 5T4) (UniProt Q13641 32-420, limits assumed).
T1 construct: whole, on cells
T1 sequence (looked up): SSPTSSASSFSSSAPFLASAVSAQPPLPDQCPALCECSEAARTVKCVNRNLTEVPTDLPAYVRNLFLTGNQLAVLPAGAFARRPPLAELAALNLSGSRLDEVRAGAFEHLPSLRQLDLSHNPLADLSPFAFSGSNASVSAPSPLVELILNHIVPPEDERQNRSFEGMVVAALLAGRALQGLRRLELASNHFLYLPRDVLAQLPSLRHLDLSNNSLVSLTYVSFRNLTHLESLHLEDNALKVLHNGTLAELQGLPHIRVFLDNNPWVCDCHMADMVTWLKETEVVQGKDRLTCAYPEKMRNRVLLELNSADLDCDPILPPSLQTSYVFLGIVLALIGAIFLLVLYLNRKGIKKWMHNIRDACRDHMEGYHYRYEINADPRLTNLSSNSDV
Put plainly: FACS on CHO cells over-expressing ectopic 5T4 (FIG. 45D). The protocol:
(§1) Then wash the cells 3 times with 170 µL FACS buffer. Re-suspend the cells at 100 µL/well with secondary antibody (goat anti-human Ig Fab-FITC, Cat # 2085-02, Southern biotech) with 1:400 dilution and incubate the plate for 30 min at 4° C. in dark. Centrifuge the plate at 2000 rpm, 4° C. for 5 min and discard supernatant. Then wash the cells 3 times with FACS buffer and analyze the sample with FACS verse. The fluorescence intensity of the staining was measured using flow cytometer (BD, FACSVerse). The geometric mean fluorescence intensity (GMFI; median fluorescence intensity (MFI)) of set antibodies staining was calculated (BD FACSuite software). Dose-response curves were generated and EC50s for thetrispecific variants binding were calculated using GraphPad Prism software.
(§2) Results: The expressed trispecific constructs were analyzed for their binding to cells expressing endogenous CD3ε, 5T4 and NKG2A/NKG2D. […] (FIG. 45F).

The target in test [2] is T2, h5T4-His (recombinant human 5T4) (human, UniProt Q13641 32-355, limits assumed).
T2 construct: Bought protein; also called recombinant 5T4
T2 sequence (looked up): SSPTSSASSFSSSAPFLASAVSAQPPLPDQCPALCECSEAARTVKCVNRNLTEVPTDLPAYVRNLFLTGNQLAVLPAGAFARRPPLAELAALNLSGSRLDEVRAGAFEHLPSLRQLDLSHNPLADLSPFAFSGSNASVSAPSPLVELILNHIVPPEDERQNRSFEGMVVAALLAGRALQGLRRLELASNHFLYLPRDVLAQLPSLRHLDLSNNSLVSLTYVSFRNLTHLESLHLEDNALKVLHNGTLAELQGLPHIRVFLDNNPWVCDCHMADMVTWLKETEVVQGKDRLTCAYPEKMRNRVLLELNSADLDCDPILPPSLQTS
Put plainly: ELISA on coated h5T4-His (FIG. 43B). The protocol: (§3) Methods: ELISA binding of Tribody/ProTribody antibody constructs to antigens: Dilute target protein (hCD3epsilon-His (cat # 10977-H08S, supplier Sino Biological); h5T4-His (cat# 19845-H08H, supplier Sino Biological); NKG2A-CD94-ECD-hFc, Lot:20200724002, provided by CP; or NKG2D-ECD-hFc, Lot: 20200413002, provided by CP) into PBS with final concentration of 0.01 µg/mL for hCD3epsilon-His, 0.3 µg/mL for h5T4-His, 1 µg/mL for NKG2A-CD94-ECD-hFc and 0.7 µg/mL for hNKG2D-ECD-hFc respectively and coat 100 µL/well on ELISA plate (cat: 9018, supplier Corning) respectively. Incubate O/N, 4° C. The plates were blocked with 250 µL 1% BSA in PBST for 1 hr at 37° C.Wash 4 times with PBST. All the washes are done using Biotek (Elx 405). All the Tribody set antibodies were diluted to 400 nM and make 4-fold serially dilutions (12 points, including 0 point). Add 100 µL/well diluted antibody constructs solution to plate, incubate for 1 hr at 37° C.Wash 4 times with PBST. Add 100 µL/well anti-human kappa light chain-HRP (1:10000), incubate for 0.5 hr at 37° C. Wash 4 times with PBST. 100 µL/well of TMB substrate was added and incubated at room temperature for 5 min. 100 µL/well of 1N HCl to terminate reaction. Plates were read using ELISA plate reader at 450 nm wavelength (instrunet SpectraMax M5e). Data Analysis was performed using Graphpad prism 5 software by using nonlinear regression (curve fit): log (agonist) vs. response, agonist is antibody concentration (nM) and response is OD value.
In general terms: In an ELISA, binding on a coated surface is turned into a signal by an enzyme label.

Test [3] concerns the target T3, human CD3 epsilon on cells (Jurkat T cells, endogenous) (human, UniProt P07766 23-207).
T3 construct: whole, on cells; On cells CD3 epsilon stands in the TCR/CD3 complex; only the epsilon chain is named as target; also called hCD3ε on Jurkat; CD3ε expressing cells
Put plainly: FACS on Jurkat T cells, endogenous hCD3ε (FIG. 45A). The protocol:
(§4) Suspension cultured cells was harvested directly, and adherent cell were digested using TrypLE Express Enzyme (cat: 12604-013, supplier Life technologies). Centrifuge at 1000 rpm for 5 min and discard the supernatant. Cells are suspended at a concentration of 2×10⁶/mL in FACS buffer (2% FBS in PBS) and add 100 µL/well of cell suspension to the plate (cat #3799, supplier Corning). Centrifuging the plates at 2000 rpm for 5 min and discard the supernatant. Re-suspend the cells in 100 µL/well of Tribody set antibodies (400 nM start, 4-fold dilution, 8 point including 0 point) and incubate the plate for 60 min at 4° C. Centrifuge the plate at 2000 rpm, 4° C. for 5 min and discard supernatant. Then wash the cells 3 times with 170 µL FACS buffer. […] The fluorescence intensity of the staining was measured using flow cytometer (BD, FACSVerse). The geometric mean fluorescence intensity (GMFI; median fluorescence intensity (MFI)) of set antibodies staining was calculated (BD FACSuite software). Dose-response curves were generated and EC50s for thetrispecific variants binding were calculated using GraphPad Prism software.
Results: The expressed trispecific constructs were analyzed for their binding to cells expressing endogenous CD3ε, 5T4 and NKG2A/NKG2D.

Test [4] has as its target T4, NKG2A-CD94-ECD-hFc (human, UniProt P26715 94-233; Q13241 32-179, limits assumed).
T4 construct: extracellular domain; Lot 20200724002, 'provided by CP'; the two-chain layout here is only the reading of the name; also called human NKG2A (recombinant); NKG2A antigen; not shown: human Fc (hFc)
In words: ELISA on coated NKG2A-CD94-ECD-hFc (FIG. 43C). As for the experimental part: as §3

Test [5] addresses T5, hCD3epsilon-His (recombinant human CD3 epsilon) (human, UniProt P07766 23-126).
T5 construct: Bought protein; also called recombinant hCD3ε protein; human CD3ε
Put plainly: ELISA on coated hCD3epsilon-His (FIG. 43A). As for the experimental part: as §3, with “Data Analysis was performed using Graphpad prism 5 software by using nonlinear regression (curve fit): log (agonist) vs. response, agonist is antibody concentration (nM) and response is OD value.” left out

The target in test [6] is T6, NKG2A/CD94 on CHO cells (CHOK1-NKG2A-CD94) (human, UniProt P26715 1-233; Q13241 1-179, limits assumed).
T6 construct: whole, on cells; also called CHO cells over-expressing NKG2A/CD94; CHO cell line over expressing ectopic NKG2A
T6 sequence (P26715 whole entry, chain 1 of 2): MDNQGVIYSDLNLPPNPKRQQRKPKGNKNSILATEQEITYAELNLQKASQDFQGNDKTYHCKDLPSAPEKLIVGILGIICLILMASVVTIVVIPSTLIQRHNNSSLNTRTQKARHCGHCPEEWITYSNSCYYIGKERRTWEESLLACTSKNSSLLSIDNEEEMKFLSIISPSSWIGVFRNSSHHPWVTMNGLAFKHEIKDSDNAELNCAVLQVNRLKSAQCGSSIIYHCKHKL
T6 sequence (Q13241 whole entry, chain 2 of 2): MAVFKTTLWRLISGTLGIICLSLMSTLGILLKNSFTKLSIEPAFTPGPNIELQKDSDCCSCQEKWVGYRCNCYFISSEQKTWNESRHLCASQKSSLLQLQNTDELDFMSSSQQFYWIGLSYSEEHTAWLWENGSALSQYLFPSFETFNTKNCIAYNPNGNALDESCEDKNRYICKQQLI
In words: FACS on CHO cells over-expressing NKG2A/CD94 (FIG. 45E). As for the experimental part:
as §1, §2

The target in test [7] is T7, NKG2A on NK92 cells (endogenous) (UniProt P26715 1-233, limits assumed).
T7 construct: whole, on cells
T7 sequence (P26715 whole entry): as the sequence (P26715 whole entry, chain 1 of 2) above
In words: FACS on NK92 cells (FIG. 45C). The protocol: as §4, with “buffer. Re-suspend the cells at 100 µL/well with secondary antibody (goat anti-human Ig Fab-FITC, Cat # 2085-02, Southern biotech) with 1:400 dilution and incubate the plate for 30 min at 4° C. in dark. Centrifuge the plate at 2000 rpm, 4° C. for 5 min and discard supernatant.” for “buffer.”

T5 sequence (P07766 23-126 limits assumed): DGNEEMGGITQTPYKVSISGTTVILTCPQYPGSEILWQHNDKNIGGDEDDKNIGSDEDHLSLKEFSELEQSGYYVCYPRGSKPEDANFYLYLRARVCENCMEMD
T3 sequence (P07766 23-207): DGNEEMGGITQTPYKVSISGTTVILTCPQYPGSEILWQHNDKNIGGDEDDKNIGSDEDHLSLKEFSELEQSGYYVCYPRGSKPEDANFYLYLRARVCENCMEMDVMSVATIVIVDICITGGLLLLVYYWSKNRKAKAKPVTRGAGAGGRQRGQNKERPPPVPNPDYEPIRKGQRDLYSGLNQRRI
T4 sequence (P26715 94-233 limits assumed, chain 1 of 2): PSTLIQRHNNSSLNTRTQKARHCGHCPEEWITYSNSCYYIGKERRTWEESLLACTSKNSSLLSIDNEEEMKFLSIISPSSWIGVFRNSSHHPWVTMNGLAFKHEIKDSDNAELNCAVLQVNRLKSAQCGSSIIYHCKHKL
T4 sequence (Q13241 32-179 limits assumed, chain 2 of 2): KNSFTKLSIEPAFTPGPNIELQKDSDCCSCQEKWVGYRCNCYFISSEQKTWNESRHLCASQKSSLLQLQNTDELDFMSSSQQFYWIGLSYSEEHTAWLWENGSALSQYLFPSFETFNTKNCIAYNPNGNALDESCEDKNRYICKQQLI

B1: IM-1093 Tribody, NKG2A mutant variant (other)
heavy: GGSGGSEVQLVESGGGLVQPGGSLRLSCAASGFTFNTYAMNWVRQAPGKGLEWVARIRSKYNNYATYYADSVKDRFTISRDDSKNTLYLQMNSLRAEDTAVYYCVRHGNFGNSYVSWFAYWGQGTMVTVSSASTKGPSVFPLAPSSKSTSGGTAALGCLVKDYFPEPVTVSWNSGALTSGVHTFPAVLQSSGLYSLSSVVTVPSSSLGTQTYICNVNHKPSNTKVDKRVEPKSCPPCGGGGSDIQMTQSPSSLSASVGDRVTITCRASENIYSALAWYQQKPGKAPKLLIYNAKTLAEGVPSRFSGSGSGTDFTLTISSLQPEDFATYYCQHHAGTPRTFGGGTKVEIKGGGGSGGGGSGGGGSGGGGSQVQLVQSGAEVKKPGASVKVSCKASGYTFTSYWMNWVRQAPGQGLEWMGRIDPYDSETHYAQKLQGRVTMTTDTSTSTAYMELRSLRSDDTAVYYCARGGYDFDVDTLYWFFDVWGQGTTVTVSS
light: GGSGGSQAVVTQEPSLTVSPGGTVTLTCRSSTGAVTTSNYANWVQQKPGQAPRGLIGGTNKRAPGTPARFSGSLLGGKAALTLSGVQPEDEAEYYCALWYSNLWVFGGGTKLTVLGQPKAAPSVTLFPPSSEELQANKATLVCLISDFYPGAVTVAWKADSSPVKAGVETTTPSKQSNNKYAASSYLSLTPEQWKSHRSYSCQVTHEGSTVEKTVAPTECPPCSGGGSDIQMTQSPSSLSASVGDRVTITCRASQGISNYLAWFQQKPGKAPKSLIYRANRLQSGVPSRFSGSGSGTDFTLTISSLQPEDVATYYCLQYDDFPWTFGQGTKLEIKGGGGSGGGGSGGGGSGGGGSQVQLVQSGAEVKKPGASVKVSCKASGYTFTSFWMHWVRQAPGQGLEWMGRIDPNRGGTEYNEKAKSRVTMTADKSTSTAYMELSSLRSEDTAVYYCAGGNPYYPMDYWGQGTTVTVSS
notes: also called NKG2A mutated Tribody
Usually EC50 stands for the concentration at which the effect is half-maximal. Consider B1, for which the EC50 is 1.3 nM in test [1], 12 nM in test [2], 1.3 nM in test [3] and 1.84 nM in test [5]. Moreover, the binding result in test [4], in test [6] and in test [7] was “no binding (tested: dilution series from 400 nM)” throughout.
